For 56 substances, FcRn Binding ratio Variant / WT results are on record in patent publication US20090041770A1.

For this experiment, the target named is human FcRn fused to a His-tag and glutathione S transferase (FcRn-His-GST), complex of FcRn heavy chain with beta-2-microglobulin (human) (UniProt P55899). As to the kind of experiment: AlphaScreen competition. A general note: Bead proximity is the source of the signal in Alpha formats.

Regarding P271A (antibody), the FcRn Binding ratio Variant / WT came to 1.01.
On to S304N (antibody), for which the FcRn Binding ratio Variant / WT came to 1.19.
As for G236Q (antibody), the figure is 1.46; as for A330F (antibody), 25.3.
To S239G (antibody) belongs 1.16; to E233R (antibody), 1.05.
With G237S (antibody), the FcRn Binding ratio Variant / WT was 1.29.
To L234G (antibody) belongs 2.54; to V303E (antibody), 1.63; to V240I (antibody), 1.28.
As for H224Y (antibody), the figure is 1.68; as for P238W (antibody), 1.3.
To A327H (antibody) belongs 1.29.
E294G (antibody): the FcRn Binding ratio Variant / WT is 1.25.
To V284L (antibody) belongs 1.51; to E233Y (antibody), 1.86; to P331L (antibody), 1.77.
To E233M (antibody) belongs 1.13; to G236D (antibody), 1.53; to A330H (antibody), 9.87.
As for Y300A (antibody), the figure is 1.04; as for V263I (antibody), 2.71.
As to T225E (antibody), the FcRn Binding ratio Variant / WT came out at 4.89.
For K274M (antibody), the FcRn Binding ratio Variant / WT came to 1.01.
Consider S239Q/I332N (antibody), for which the FcRn Binding ratio Variant / WT was 1.11.
To E269W (antibody) belongs 1.19; to A330P (antibody), 5.48; to Y300Q (antibody), 1.11.
For the substance Y300G (antibody), the FcRn Binding ratio Variant / WT amounted to 1.07.
Consider S298F (antibody), for which the FcRn Binding ratio Variant / WT stood at 1.15.
For N325D (antibody), the FcRn Binding ratio Variant / WT worked out at 1.45.
To S267K (antibody) belongs 1.7.
As for N276V (antibody), the FcRn Binding ratio Variant / WT was 1.27.
To P238S (antibody) belongs 1.12; to E269M (antibody), 1.11.
With L328F (antibody), the FcRn Binding ratio Variant / WT turned out to be 2.06.
As for G236M (antibody), the figure is 1.6; as for L235V (antibody), 1.31; as for S298T (antibody), 2.13.
To K222Y (antibody) belongs 1.31; to T299Y (antibody), 3.85; to S239R (antibody), 1.04.
As for Y300E (antibody), the figure is 1.27.
Regarding G237I (antibody), the FcRn Binding ratio Variant / WT amounted to 1.01.
To Y296E (antibody) belongs 1.23; to P232K (antibody), 1.56; to P238T (antibody), 1.12.
As for V264I/I332E (antibody), the figure is 1.7; as for P329R (antibody), 1.64.
To T335S (antibody) belongs 1.42; to I332H (antibody), 1.24.
For the substance S239T (antibody), the FcRn Binding ratio Variant / WT was determined as 1.12.
With K274I (antibody), the FcRn Binding ratio Variant / WT is 1.08.
In the case of N286P (antibody), the FcRn Binding ratio Variant / WT was 2.9.
As for L328D/I332E (antibody), the figure is 11.8; as for K320L (antibody), 1.07.
